Tests used:
HLA-A1 (human) = assay: experimental peptide-HLA binding affinity; method not described
HLA-A2 (human) = assay: as above

| Binder | Binding affinity (HLA-A1 (human)) [µM] | Binding affinity (HLA-A2 (human)) [µM] |
| --- | --- | --- |
| DLQPETTDLY (modifications not checked) [HPV16 E7/14-23 peptide …] | 1.62 |  |
| ETTDLYCY (modifications not checked) [HPV16 E7/18-25 peptide ETTDLYCY] | 11.5 |  |
| YMLDLQPETT (modifications not checked) [HPV16 E7/11-20 peptide …] |  | 2.19 |
| YMLDLQPE (modifications not checked) [HPV16 E7/11-18 peptide YMLDLQPE] |  | 8.07 |
| MLDLQPET (modifications not checked) [HPV16 E7/12-19 peptide MLDLQPET] |  | 53.7 |
| YMLDLQPETTD (modifications not checked) [HPV16 E7/11-21 peptide …] |  | 2.37 |
| MLDLQPETT (modifications not checked) [HPV16 E7/12-20 peptide …] |  | 3.6 |
